Assay [1] deals with Domain-11 of human M6P/IGF2R (D11), C-terminally His-tagged (human) (UniProt P11717). The assay can be described thus: radioligand binding; competition of cold ligand with [125I]-monoiodotyrosyl-Tyr2-IGF2 for immobilized D11; Kd of the tracer 2 nM.
Assay [2] deals with His-tagged IGFBP3 (UniProt P17936). The assay can be described thus: radioligand binding; saturation binding of 0-5 nM [125I]-monoiodotyrosyl-Tyr2-IGF2 to His-tagged IGFBP3 immobilized on a 96-well plate via neutravidin and Ni-NTA iBodies; 16 h at 5 °C, 100 mM HEPES pH 7.6, 100 mM NaCl, 1% BSA; nonspecific binding with 10 µM unlabeled IGF2.
His-tagged IGFBP3, sequence (P17936 28-291): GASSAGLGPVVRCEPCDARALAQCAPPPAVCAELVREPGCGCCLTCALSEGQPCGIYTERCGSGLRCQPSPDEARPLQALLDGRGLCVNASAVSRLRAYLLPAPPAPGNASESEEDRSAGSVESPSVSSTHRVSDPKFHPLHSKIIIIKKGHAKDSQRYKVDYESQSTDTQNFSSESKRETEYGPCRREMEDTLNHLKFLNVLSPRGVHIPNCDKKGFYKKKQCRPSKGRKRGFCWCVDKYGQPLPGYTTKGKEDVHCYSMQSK
Assay [3] deals with IGFBP3:ALS complex, preformed on immobilized His-tagged ALS (UniProt P35858). Description: radioligand binding; saturation binding of 0-5 nM [125I]-monoiodotyrosyl-IGF2 to IGFBP3 (no His-tag, 25 ng/well) preformed in complex with His-tagged ALS (10 ng/well) immobilized via neutravidin and Ni-NTA iBodies; 16 h at 5 °C, 100 mM HEPES pH 7.6, 100 mM NaCl, 1% BSA.
IGFBP3:ALS complex, preformed on immobilized His-tagged ALS, sequence (P35858 28-605, chain 1 of 2): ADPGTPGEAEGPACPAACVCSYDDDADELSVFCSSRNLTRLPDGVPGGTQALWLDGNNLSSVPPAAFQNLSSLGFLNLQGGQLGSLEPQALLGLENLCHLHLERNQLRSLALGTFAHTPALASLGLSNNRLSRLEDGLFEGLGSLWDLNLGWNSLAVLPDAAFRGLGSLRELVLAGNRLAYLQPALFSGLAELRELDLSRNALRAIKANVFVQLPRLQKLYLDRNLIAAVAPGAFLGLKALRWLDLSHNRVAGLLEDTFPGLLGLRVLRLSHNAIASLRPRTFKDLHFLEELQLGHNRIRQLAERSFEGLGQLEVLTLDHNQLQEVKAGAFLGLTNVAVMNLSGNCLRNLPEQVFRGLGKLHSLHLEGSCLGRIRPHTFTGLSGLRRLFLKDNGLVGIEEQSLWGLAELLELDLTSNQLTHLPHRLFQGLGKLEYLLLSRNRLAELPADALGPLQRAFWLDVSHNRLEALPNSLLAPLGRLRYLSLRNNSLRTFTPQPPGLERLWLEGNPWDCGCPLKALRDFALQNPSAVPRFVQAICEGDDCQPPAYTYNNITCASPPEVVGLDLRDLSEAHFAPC
IGFBP3:ALS complex, preformed on immobilized His-tagged ALS, sequence (P17936 28-291, chain 2 of 2, further chain): as the sequence (P17936 28-291) above
In assay [4] the target is mannose-6-phosphate/IGF2 receptor (M6P/IGF2R), native in R- cells (mouse (endogenous in R- cells)) (UniProt Q07113). Description: radioligand binding; saturation binding of 0-5 nM [125I]-monoiodotyrosyl-Tyr2-IGF2 to 14,000 R- cells per well; 16 h at 5 °C, 100 mM HEPES pH 7.6, 100 mM NaCl, 1% BSA; nonspecific binding with 10 µM unlabeled IGF2; one-site fit.
mannose-6-phosphate/IGF2 receptor (M6P/IGF2R), native in R- cells (mouse (endogenous in R- cells)), sequence (Q07113 36-2483): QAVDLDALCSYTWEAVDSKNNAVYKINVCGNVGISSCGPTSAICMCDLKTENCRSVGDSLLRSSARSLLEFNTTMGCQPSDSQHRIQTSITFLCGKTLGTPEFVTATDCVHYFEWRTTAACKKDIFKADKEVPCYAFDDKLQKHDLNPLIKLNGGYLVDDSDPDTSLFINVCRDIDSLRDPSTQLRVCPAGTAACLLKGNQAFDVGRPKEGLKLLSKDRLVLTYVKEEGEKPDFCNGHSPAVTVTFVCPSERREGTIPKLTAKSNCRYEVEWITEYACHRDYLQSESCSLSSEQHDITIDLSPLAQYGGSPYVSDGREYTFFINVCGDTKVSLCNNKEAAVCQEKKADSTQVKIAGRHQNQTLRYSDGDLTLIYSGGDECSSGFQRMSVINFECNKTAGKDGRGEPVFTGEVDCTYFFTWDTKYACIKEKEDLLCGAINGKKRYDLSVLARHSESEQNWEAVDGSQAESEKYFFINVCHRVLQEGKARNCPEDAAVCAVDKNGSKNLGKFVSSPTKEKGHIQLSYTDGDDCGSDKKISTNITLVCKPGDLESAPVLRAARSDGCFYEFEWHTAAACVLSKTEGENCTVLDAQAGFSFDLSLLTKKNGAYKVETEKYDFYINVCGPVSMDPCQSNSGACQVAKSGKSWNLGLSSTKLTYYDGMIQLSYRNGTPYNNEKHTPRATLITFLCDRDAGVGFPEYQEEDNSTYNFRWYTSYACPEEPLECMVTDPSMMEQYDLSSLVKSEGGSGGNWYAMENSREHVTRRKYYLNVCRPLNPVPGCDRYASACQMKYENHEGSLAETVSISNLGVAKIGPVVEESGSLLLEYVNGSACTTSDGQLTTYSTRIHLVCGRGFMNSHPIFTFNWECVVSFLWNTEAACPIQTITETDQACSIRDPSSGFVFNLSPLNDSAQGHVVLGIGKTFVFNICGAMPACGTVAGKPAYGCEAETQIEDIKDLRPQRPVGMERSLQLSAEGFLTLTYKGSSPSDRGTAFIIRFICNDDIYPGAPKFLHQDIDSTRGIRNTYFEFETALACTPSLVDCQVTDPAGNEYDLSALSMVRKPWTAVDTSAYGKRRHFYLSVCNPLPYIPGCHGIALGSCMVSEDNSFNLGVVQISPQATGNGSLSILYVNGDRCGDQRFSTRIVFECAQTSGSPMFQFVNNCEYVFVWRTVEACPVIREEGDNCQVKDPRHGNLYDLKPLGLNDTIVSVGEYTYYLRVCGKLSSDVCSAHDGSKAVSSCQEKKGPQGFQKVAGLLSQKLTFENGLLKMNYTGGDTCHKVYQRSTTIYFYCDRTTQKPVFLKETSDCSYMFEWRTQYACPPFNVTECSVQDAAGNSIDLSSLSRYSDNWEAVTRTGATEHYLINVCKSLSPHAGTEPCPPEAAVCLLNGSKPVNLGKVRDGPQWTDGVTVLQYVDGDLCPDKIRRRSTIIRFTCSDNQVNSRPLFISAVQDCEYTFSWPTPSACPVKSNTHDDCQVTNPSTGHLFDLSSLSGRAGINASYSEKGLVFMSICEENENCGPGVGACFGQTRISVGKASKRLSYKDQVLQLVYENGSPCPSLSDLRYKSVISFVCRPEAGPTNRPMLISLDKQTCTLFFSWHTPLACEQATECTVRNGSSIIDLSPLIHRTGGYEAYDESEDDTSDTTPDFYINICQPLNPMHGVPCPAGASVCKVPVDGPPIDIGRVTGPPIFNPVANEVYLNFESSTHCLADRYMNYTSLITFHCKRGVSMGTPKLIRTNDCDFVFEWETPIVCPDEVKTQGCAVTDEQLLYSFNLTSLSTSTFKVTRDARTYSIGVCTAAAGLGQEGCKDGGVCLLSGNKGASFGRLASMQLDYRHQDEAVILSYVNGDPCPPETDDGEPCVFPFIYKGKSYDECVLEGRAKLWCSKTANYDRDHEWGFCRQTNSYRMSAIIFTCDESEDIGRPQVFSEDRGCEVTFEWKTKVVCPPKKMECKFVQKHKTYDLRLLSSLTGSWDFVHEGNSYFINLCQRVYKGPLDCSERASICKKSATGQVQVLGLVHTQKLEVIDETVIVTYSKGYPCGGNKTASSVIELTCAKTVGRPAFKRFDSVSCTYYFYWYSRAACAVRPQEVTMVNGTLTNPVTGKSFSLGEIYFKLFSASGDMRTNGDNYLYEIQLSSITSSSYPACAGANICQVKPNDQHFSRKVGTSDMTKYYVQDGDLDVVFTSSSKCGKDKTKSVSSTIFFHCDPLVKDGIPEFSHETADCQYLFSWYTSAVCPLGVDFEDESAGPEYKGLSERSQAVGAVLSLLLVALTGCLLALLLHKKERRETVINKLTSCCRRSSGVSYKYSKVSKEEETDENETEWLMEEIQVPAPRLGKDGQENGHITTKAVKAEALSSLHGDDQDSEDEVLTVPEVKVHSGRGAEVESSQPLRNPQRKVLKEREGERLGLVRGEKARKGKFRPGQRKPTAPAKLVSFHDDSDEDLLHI
Assay [5] deals with His-tagged IGFBP3 (UniProt P17936). The assay can be described thus: radioligand binding; saturation binding of 0-5 nM [125I]-monoiodotyrosyl-IGF2 to His-tagged IGFBP3 (25 ng/well) immobilized via neutravidin and Ni-NTA iBodies; 16 h at 5 °C, 100 mM HEPES pH 7.6, 100 mM NaCl, 1% BSA.
In assay [6] the target is mannose-6-phosphate/IGF2 receptor (M6P/IGF2R), native in R- cells (mouse (endogenous in R- cells)) (UniProt Q07113). The assay can be described thus: radioligand binding; competition of cold ligand (10^-12-10^-6 M) with [125I]-monoiodotyrosyl-Tyr2-IGF2 (43,000 cpm) for M6P/IGF2R on R- cells; 16 h at 5 °C, 100 mM HEPES pH 7.6, 100 mM NaCl, 1% BSA; affinity relative to IGF2.

In assay [7] the target is insulin receptor isoform A (IR-A) (human) (UniProt P06213). The assay can be described thus: radioligand binding; competition of cold ligand with [125I]-monoiodotyrosyl-TyrA14-insulin for human IR-A on whole IM-9 lymphocytes; one-site fit; affinity relative to human insulin.
In assay [8] the target is insulin receptor isoform B (IR-B) (human) (UniProt P06213). The assay can be described thus: radioligand binding; competition of cold ligand with [125I]-monoiodotyrosyl-TyrA14-insulin for human IR-B on transfected mouse fibroblasts; one-site fit; affinity relative to human insulin.
In assay [9] the target is Domain-11 of human M6P/IGF2R (D11) (human) (UniProt P11717). The assay can be described thus: radioligand binding; competition of cold ligand with [125I]-monoiodotyrosyl-Tyr2-IGF2 for immobilized D11 (as in ref. 33); affinity relative to IGF2.
Domain-11 of human M6P/IGF2R (D11) (human), sequence (P11717 1514-1648): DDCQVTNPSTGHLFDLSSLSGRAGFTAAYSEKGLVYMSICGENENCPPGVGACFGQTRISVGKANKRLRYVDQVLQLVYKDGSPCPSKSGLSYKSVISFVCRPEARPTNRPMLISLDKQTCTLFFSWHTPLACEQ
The target of assay [10] is IGFBP3:ALS complex, preformed on immobilized His-tagged ALS (UniProt P35858). The assay can be described thus: radioligand binding; competition of cold ligand (10^-12-10^-6 M) with [125I]-monoiodotyrosyl-Tyr2-IGF2 (43,000 cpm) for the IGFBP3:ALS complex immobilized through the His-tag of ALS; 16 h at 5 °C, HEPES pH 7.6; affinity relative to IGF2.
Assay [11] addresses His-tagged IGFBP3 (UniProt P17936). The assay can be described thus: radioligand binding; competition of cold ligand (10^-12-10^-6 M) with [125I]-monoiodotyrosyl-Tyr2-IGF2 (43,000 cpm) for His-tagged IGFBP3 immobilized via neutravidin and Ni-NTA iBodies; 16 h at 5 °C, HEPES pH 7.6; affinity relative to IGF2.
The target of assay [12] is IGF1 receptor (IGF1R) (human) (UniProt P08069). The assay can be described thus: radioligand binding; competition of cold ligand with [125I]-iodotyrosyl-IGF1 for human IGF-1R on R+39 mouse fibroblasts; one-site fit; affinity relative to IGF1.
Assay [13] concerns the target human insulin receptor isoform B (IR-B) in transfected mouse fibroblasts (human) (UniProt P06213). Description: radioligand binding; competition of cold ligand with [125I]-monoiodotyrosyl-TyrA14-insulin on mouse fibroblasts transfected with human IR-B; Kd by one-site fit, Kd of the tracer 0.3 nM.
The target in assay [14] is native M6P/IGF2R in R- cells (mouse embryonic fibroblasts) (mouse (endogenous in R- cells)) (UniProt Q07113). Description: radioligand binding; competition of cold ligand (10^-12-10^-6 M) with [125I]-monoiodotyrosyl-Tyr2-IGF2 on R- cells; 16 h at 5 °C, 100 mM HEPES pH 7.6, 100 mM NaCl, 1 mM EDTA, 1% BSA; Kd of the tracer 8.2 nM.
native M6P/IGF2R in R- cells (mouse embryonic fibroblasts) (mouse (endogenous in R- cells)), sequence (Q07113 36-2483): as the sequence (Q07113 36-2483) above
Assay [15] addresses human IGF1 receptor in transfected mouse fibroblasts (R+39 cells) (human) (UniProt P08069). The assay can be described thus: radioligand binding; competition of cold ligand with [125I]-iodotyrosyl-IGF1 on R+39 cells (mouse fibroblasts with human IGF-1R); Kd by one-site fit, Kd of the tracer 0.2 nM.
The target in assay [16] is human insulin receptor isoform A (IR-A) in human IM-9 lymphocytes (human) (UniProt P06213). Description: radioligand binding; competition of cold ligand with [125I]-monoiodotyrosyl-TyrA14-insulin on human IM-9 lymphocytes; Kd by one-site fit, Kd of the tracer 0.3 nM.
Assay [17] has as its target His-tagged IGFBP3 (UniProt P17936). The assay can be described thus: radioligand binding; competition of cold ligand (10^-12-10^-6 M) with [125I]-monoiodotyrosyl-Tyr2-IGF2 for His-tagged IGFBP3 immobilized on a 96-well plate via neutravidin and Ni-NTA iBodies; 16 h at 5 °C, 100 mM HEPES pH 7.6, 100 mM NaCl, 1% BSA.
In assay [18] the target is IGFBP3:ALS complex, preformed on immobilized His-tagged ALS (UniProt P35858). Description: radioligand binding; competition of cold ligand (10^-12-10^-6 M) with [125I]-monoiodotyrosyl-Tyr2-IGF2 for the IGFBP3:ALS complex immobilized through the His-tag of ALS; 16 h at 5 °C, 100 mM HEPES pH 7.6, 100 mM NaCl, 1% BSA; Kd of the tracer 5.9 nM.

pKd: −log10 of the molar value.

The term pKd denotes the negative decadic logarithm of the Kd, by convention in mol/L. Higher therefore signals a small Kd. “Insulin-like Growth Factor-2 (IGF2), native mature 67-amino-acid protein (from UniProt P01344 25-91) (ligand)”: the negative-log Kd (pKd) in assay [1] is 8.89.
In the assay with His-tagged IGFBP3 [2], “[125I]-monoiodotyrosyl-Tyr2-IGF2 (ligand)” showed a pKd of 9.23.
Turning to “[^125I]-monoiodotyrosyl-Tyr2-IGF2 (ligand)”, the pKd in [3] is 8.23; in assay [4], 8.09; with His-tagged IGFBP3 [5], 9.25.
Turning to big-IGF2(87) (ligand), the relative binding affinity (% of IGF2) in [6] was determined as 227%; in [9], 73%; in assay [10] it was 58%; with His-tagged IGFBP3 [11], 70%. Further, the relative binding affinity (% of human insulin) stood at 7.1% in assay [7] and 2.7% in assay [8]. This substance also showed a relative binding affinity (% of IGF1) in [12] of 14.8%.
With big-IGF2(87), non-glycosylated (ligand), the pKd in assay [13] was 8.02; in [14] it was 9.25; in assay [15] it was 8.80; in assay [16], 8.42; in [1], 8.75; in the assay with His-tagged IGFBP3 [17], 9.54. The pKd in assay [18] was 8.79.
With big-IGF2(104) (ligand), the relative binding affinity (% of IGF2) in [6] was found to be 887%; in assay [9], 698%; in assay [10] it was 17%; with His-tagged IGFBP3 [11], 146%. Besides, the relative binding affinity (% of human insulin) in assay [7] was found to be 9.8%; in [8], 2.9%. In assay [12], this substance yielded a relative binding affinity (% of IGF1) of 9.7%.
With “big-IGF2(104), non-glycosylated (ligand)”, the pKd in assay [13] was 8.05; in assay [14] it was 9.85; in [15], 8.61; in assay [16], 8.56; in [1] it was 9.72; with His-tagged IGFBP3 [17], 9.85. The substance further had a pKd in assay [18] of 8.25.
With “pro-IGF2(156), non-glycosylated (from UniProt P01344 25-180) (ligand)”, the pKd in [1] was 8.64.

The values are drawn from article PMC10439913.
